Values quoted from earlier work, collected in publication PMC5750235.

Molecular target: IgE (Homo sapiens) (UniProt P01854)
Sequence (P01854 whole entry): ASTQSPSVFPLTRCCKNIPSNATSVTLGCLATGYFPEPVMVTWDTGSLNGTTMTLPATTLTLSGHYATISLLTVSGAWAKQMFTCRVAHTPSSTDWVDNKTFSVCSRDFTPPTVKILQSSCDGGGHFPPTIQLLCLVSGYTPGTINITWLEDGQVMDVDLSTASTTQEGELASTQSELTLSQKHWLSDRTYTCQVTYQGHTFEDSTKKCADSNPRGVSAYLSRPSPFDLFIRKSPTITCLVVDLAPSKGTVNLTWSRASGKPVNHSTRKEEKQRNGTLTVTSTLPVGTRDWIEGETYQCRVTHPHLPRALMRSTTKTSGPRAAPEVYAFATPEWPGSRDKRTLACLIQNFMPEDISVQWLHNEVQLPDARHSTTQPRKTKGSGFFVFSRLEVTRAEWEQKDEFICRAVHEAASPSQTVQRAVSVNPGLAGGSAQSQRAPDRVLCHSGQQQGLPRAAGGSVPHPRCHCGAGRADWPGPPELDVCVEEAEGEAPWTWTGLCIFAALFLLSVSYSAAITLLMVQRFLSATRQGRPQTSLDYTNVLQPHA

CD23, sequence (P06734 48-321): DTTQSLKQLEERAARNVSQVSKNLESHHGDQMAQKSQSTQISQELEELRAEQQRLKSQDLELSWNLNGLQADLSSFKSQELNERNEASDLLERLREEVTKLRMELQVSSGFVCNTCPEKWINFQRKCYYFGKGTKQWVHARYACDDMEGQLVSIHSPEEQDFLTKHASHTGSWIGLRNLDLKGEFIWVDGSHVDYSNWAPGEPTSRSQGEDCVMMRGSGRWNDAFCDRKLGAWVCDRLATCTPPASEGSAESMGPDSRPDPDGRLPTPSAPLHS

Kd: 2000 nM
Substance: CD23 (from UniProt P06734)
